Test results published in patent US12371817 (TEXAS A AND M UNIVERSITY SYSTEM, dated 2025).
Blank lines part the entries; values can stand above or below the binder they belong to. Numbered stars: 1 amine (or outer) side, 2 acyl side, 3 side chain; on linkers, the order of the positions; unused ones are H or OH. Square brackets hold non-standard residues; d marks the D form. Ends that are not written are not given here. * marks the point of attachment. thBuK = N^ε-thiobutyryl-lysine, CCCC(=S)NCCCC[C@H](N[*:1])C(=O)[*:2]; Crotonyl(E) = C/C=C/C(=O)*; Abu = CC[C@H](N)C(=O)O

What was measured:
[1] = molecular target: T1, recombinant human sirtuin 2 (His6-SIRT2) (human, UniProt Q8IXJ6 1-389); test: deacetylase inhibition
T1 chain: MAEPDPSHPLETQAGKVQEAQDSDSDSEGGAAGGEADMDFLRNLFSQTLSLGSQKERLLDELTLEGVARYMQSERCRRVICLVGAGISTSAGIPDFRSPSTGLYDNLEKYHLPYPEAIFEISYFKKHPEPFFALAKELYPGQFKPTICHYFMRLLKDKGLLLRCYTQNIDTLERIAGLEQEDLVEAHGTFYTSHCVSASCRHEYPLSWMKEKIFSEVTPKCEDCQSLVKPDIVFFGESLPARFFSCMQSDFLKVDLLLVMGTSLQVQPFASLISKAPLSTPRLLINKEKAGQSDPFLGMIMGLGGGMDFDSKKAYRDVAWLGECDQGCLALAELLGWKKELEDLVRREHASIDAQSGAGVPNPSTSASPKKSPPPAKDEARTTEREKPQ

[2] = molecular target: T2, recombinant human sirtuin 2 (His6-SIRT2) (human, UniProt Q8IXJ6 1-389); test: cell-based or functional assay
T2 sequence (looked up): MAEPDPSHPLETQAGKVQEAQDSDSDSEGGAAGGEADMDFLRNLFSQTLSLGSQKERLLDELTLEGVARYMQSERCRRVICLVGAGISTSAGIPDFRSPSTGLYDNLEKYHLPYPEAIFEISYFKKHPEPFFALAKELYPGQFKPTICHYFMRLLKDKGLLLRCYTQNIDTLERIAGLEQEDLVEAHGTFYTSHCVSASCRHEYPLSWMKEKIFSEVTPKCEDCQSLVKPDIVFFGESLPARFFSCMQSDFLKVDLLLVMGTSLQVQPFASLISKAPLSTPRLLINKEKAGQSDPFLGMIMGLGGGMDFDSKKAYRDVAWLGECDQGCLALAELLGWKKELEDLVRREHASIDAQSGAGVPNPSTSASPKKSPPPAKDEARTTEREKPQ

ENL = molecular target: T3, ENL (UniProt Q03111 1-148, limits assumed); test: fluorescence polarization, 5-FAM-conjugated peptide binding to ENL
T3 construct: also called ENL protein
T3 sequence (looked up): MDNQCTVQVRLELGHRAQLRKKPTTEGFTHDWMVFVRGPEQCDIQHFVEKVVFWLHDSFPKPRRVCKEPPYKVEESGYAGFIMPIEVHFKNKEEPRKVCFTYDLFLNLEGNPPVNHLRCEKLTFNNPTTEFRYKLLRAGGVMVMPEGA

[3] = molecular target: T4, human sirtuin 1 (His6-SIRT1) (human, UniProt Q96EB6 1-747); test: cell-based or functional assay
T4 sequence (looked up): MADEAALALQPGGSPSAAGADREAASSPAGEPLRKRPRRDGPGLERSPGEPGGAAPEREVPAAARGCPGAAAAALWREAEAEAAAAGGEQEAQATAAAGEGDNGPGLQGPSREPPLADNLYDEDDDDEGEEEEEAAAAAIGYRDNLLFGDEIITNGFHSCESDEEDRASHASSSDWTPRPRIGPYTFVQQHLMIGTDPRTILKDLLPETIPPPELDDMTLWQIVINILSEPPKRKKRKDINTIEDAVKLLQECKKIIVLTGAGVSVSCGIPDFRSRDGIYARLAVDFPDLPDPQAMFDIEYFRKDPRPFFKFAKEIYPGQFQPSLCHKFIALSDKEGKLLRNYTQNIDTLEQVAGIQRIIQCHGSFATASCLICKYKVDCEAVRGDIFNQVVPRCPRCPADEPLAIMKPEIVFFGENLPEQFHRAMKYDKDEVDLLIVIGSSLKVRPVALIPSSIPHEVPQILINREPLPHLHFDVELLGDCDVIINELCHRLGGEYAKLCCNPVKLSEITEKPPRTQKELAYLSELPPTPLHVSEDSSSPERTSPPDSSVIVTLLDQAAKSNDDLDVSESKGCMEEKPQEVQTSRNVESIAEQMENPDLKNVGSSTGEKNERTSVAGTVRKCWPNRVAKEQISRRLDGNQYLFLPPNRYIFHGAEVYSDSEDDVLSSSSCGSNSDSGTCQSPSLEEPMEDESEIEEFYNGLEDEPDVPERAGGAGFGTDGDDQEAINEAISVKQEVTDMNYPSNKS

[4] = molecular target: T5, human sirtuin 3 (GST-SIRT3) (human, UniProt Q9NTG7 102-399); test: cell-based or functional assay
T5 sequence (looked up): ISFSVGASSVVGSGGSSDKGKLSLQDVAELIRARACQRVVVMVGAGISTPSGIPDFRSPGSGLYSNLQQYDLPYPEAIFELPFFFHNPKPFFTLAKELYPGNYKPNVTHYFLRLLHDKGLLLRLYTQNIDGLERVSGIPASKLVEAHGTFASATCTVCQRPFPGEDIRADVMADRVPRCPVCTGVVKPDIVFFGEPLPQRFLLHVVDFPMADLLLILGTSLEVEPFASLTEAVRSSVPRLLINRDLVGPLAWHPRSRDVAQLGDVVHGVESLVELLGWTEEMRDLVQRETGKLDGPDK

B1: S2P07 (NH2-CTFXVPT-NH2), synthesized with N^ε-thiobutyryl-lysine (thBuK) in place of BuK (peptide)
peptide: H-CTF[thBuK]VPT-NH2
SMILES: CCCC(=S)NCCCC[C@H](NC(=O)[C@H](Cc1ccccc1)NC(=O)[C@@H](NC(=O)[C@@H](N)CS)[C@@H](C)O)C(=O)N[C@H](C(=O)N1CCC[C@H]1C(=O)N[C@H](C(N)=O)[C@@H](C)O)C(C)C
- IC50 [1]: 101 nM

B2: S2P04-5, truncated version of S2P04 containing only the five residues of the consensus motif (peptide)
peptide: CTV[thBuK]I-NH2
modifications: N-terminus assumed
SMILES: CCCC(=S)NCCCC[C@H](NC(=O)[C@@H](NC(=O)[C@@H](NC(=O)[C@@H](N)CS)[C@@H](C)O)C(C)C)C(=O)N[C@H](C(N)=O)[C@@H](C)CC
- IC50, inhibition of SIRT2 (fluorogenic sirtuin substrate assay) [2]: 136 nM

B3: S2P04 (Abu)-5 (NH2-ZTVXI-NH2, Z is aminobutyric acid) (peptide)
peptide: H-[Abu]TV[thBuK]I-NH2
SMILES: CCCC(=S)NCCCC[C@H](NC(=O)[C@@H](NC(=O)[C@@H](NC(=O)[C@@H](N)CC)[C@@H](C)O)C(C)C)C(=O)N[C@H](C(N)=O)[C@@H](C)CC
- IC50 [1]: 119 nM

B5: S2P04 (NH2-TCTVXIG-NH2), synthesized with N^ε-thiobutyryl-lysine (thBuK) in place of BuK (peptide)
peptide: H-TCTV[thBuK]IG-NH2
SMILES: CCCC(=S)NCCCC[C@H](NC(=O)[C@@H](NC(=O)[C@@H](NC(=O)[C@H](CS)NC(=O)[C@@H](N)[C@@H](C)O)[C@@H](C)O)C(C)C)C(=O)N[C@H](C(=O)NCC(N)=O)[C@@H](C)CC
- fold by which SIRT2 is inhibited more potently than SIRT1 [3]: 2.7 fold
- fold more potent than TB (sirtuin inhibition) [3]: ≥ 33 fold
- fold more potent than TB (sirtuin inhibition) [2]: ≥ 33 fold
- fold by which SIRT2 is inhibited more potently than SIRT3 [4]: 152 fold
- fold more potent than TB (sirtuin inhibition) [4]: ≥ 33 fold
- IC50 [1]: 92 nM

B6: S2P03 (NH2-CTVXTSL-NH2), synthesized with N^ε-thiobutyryl-lysine (thBuK) in place of BuK (peptide)
peptide: H-CTV[thBuK]TSL-NH2
SMILES: CCCC(=S)NCCCC[C@H](NC(=O)[C@@H](NC(=O)[C@@H](NC(=O)[C@@H](N)CS)[C@@H](C)O)C(C)C)C(=O)N[C@H](C(=O)N[C@@H](CO)C(=O)N[C@@H](CC(C)C)C(N)=O)[C@@H](C)O
- IC50 [1]: 68 nM

Other lines, results leading:

- IC50 [1]: 191 nM
B4: Ac-S2P04-5 (Ac-CTVXI-NH2) (peptide)
peptide: Ac-CTV[thBuK]I-NH2
SMILES: CCCC(=S)NCCCC[C@H](NC(=O)[C@@H](NC(=O)[C@@H](NC(=O)[C@H](CS)NC(C)=O)[C@@H](C)O)C(C)C)C(=O)N[C@H](C(N)=O)[C@@H](C)CC

- Kd (ENL): 90 nM
Binder: SK(Crotonyl(E))DIWCF (also: 5-FAM conjugated, site not given here) [5-FAM-conjugated 7CrKEnl2]

- Kd (ENL): 94 nM
Binder: DIWCFK(Crotonyl(E))G (also: 5-FAM conjugated, site not given here) [5-FAM-conjugated 7CrKEnl1]
